Measurements: patent publication US20040176285A1, “Tip39 polypeptides” (priority 2001, published 2004)
Blank lines part the entries; values can stand above or below the molecule they belong to. Where no end group is shown, it is not given here.

Legend:
PTH1R [1] = biological target: T1, PTH1R (Homo sapiens, UniProt Q03431); conditions: cited from earlier work
T1 sequence (Q03431 27-593): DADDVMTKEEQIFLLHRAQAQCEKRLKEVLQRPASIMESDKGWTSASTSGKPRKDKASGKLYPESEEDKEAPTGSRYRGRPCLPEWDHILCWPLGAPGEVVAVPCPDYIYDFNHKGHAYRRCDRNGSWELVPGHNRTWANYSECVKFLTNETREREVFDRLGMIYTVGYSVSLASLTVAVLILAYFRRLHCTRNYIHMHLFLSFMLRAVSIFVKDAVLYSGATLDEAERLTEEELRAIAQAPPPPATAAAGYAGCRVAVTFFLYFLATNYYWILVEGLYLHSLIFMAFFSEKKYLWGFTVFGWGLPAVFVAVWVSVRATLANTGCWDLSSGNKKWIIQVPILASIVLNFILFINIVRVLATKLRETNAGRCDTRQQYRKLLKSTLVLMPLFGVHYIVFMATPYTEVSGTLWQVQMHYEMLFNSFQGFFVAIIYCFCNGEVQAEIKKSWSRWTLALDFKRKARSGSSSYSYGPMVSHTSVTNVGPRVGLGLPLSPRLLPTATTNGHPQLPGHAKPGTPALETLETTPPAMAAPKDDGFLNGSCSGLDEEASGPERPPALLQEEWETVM

PTH1R [2] = biological target: T1, PTH1R; assay: Inhibition of agonist-stimulated cAMP accumulation in HKrk-B7 cells; assay type: cell-based; design: expressed in transfected cells; conditions: agonist PTH(1-34), PTHrP(1-36) or PTHrP(1-20)/TIP(23-39) at 1 nM (about half-maximal)
Description: (§1) FIG. 4A-4F. Inhibition of agonist-stimulated cAMP accumulation in HKrk-B7 cells (FIG. 4A-4C) or SaOS-2 cells (FIG. 4D-4F). […] Data are expressed as % of half-maximal cAMP accumulation and represent the results (mean±SE) of at least three independent experiments.
(§2) Na^125I (specific activity: 2,000 Ci/mmol) was purchased from DuPont/NEN, Boston, Mass. Fetal bovine serum, 3-isobutyl-1-methyl-xanthine (IBMX), and BSA were from Sigma, St. Louis, Mo., and trifluoroacetic acid (TFA) was from Pierce, Rockford, Ill. Radiolabeled rPTH(1-34) and PTHrP(1-36) were prepared by the chloramine-T method, followed by HPLC purification using a 30-50% ACN/0.1% TFA gradient over 30 minutes; radioreceptor assays were performed in 24-well plates as previously described (Gardella, T. J., et al., J. Biol. Chem. 271:19888-19893 (1996); Fukayama, S. et al., Endocrinology 134:1851-1858 (1994)). […] The entire lysate was counted for γ-irradiation. Specific binding was determined after subtracting radioactivity bound in the presence of maximal concentrations of unlabeled competing peptide (10^−6 M). […] Data were analyzed and graphically illustrated using the graph-pad prism software package.

endogenous PTH1R = biological target: T2, endogenous PTH1R (Homo sapiens, UniProt Q03431); assay: Ligand-stimulated cAMP accumulation in SaOS-2 cells; assay type: cell-based; conditions: SaOS-2 cells
T2 construct: SaOS-2 cells expressing the wild-type PTH1R endogenously; endogenous in cells; host or cells: SaOS-2 human osteosarcoma cells
T2 sequence (Q03431 27-593): T1 sequence (Q03431 27-593)
Procedure: (§3) DMEM, Trypsin/EDTA, and penicillin G/streptomycin and horse serum were from Gibco/BRL, Life Technologies, Gaithersburg, Md. LLC-PK, expressing the recombinant human PTH1R (HKrk-B7 cells) and SaOS-2 cells expressing the wild-type PTH1R endogenously were cultured in DMEM supplemented with 10% heat-inactivated fetal bovine serum, 100 U/ml penicillin, 100 μg/ml streptomycin, as previously described (Gardella, T. J., et al., J. Biol. Chem. 271:19888-19893 (1996); Fukayama, S., et al., Endocrinology 134:1851-1858 (1994)); both cell lines were maintained in a humidified atmosphere containing 95% air and 5% CO2. After seeding, medium was replaced daily, until cells were used for radioligand binding or cAMP accumulation assays.
as §2, with “(1994)). In brief, each well (final volume 500 μl) contained binding buffer (BB; 50 mM Tris-HCl (pH 7.7), 100 mM NaCl, 5 mM KCl, 2 mM CaCl2, 5% heat-inactivated horse serum, and 0.5% heat-inactivated fetal bovine serum), the ^125I-labeled PTH or PTHrP analog (100,000 to 200,000 cpm) was incubated in the absence or presence of increasing concentrations of unlabeled peptides.” for “(1994)).”, “package. […]” for “package.”

PTH1R [3] = biological target: T1, PTH1R; assay: Inhibition of agonist-stimulated cAMP accumulation in SaOS-2 cells; assay type: cell-based; design: expressed in transfected cells; conditions: SaOS-2 cells (stated for both cell lines); agonists 0.15-0.3 nM
Description: as §1, §2

PTH1R [4] = biological target: T1, PTH1R; assay: Ligand-stimulated cAMP accumulation in HKrk-B7 cells; assay type: cell-based; design: expressed in transfected cells; conditions: HKrk-B7 cells
Procedure: as §3
Na^125I (specific activity: 2,000 Ci/mmol) was purchased from DuPont/NEN, Boston, Mass. Fetal bovine serum, 3-isobutyl-1-methyl-xanthine (IBMX), and BSA were from Sigma, St. Louis, Mo., and trifluoroacetic acid (TFA) was from Pierce, Rockford, Ill. Radiolabeled rPTH(1-34) and PTHrP(1-36) were prepared by the chloramine-T method, followed by HPLC purification using a 30-50% ACN/0.1% TFA gradient over 30 minutes; radioreceptor assays were performed in 24-well plates as previously described (Gardella, T. J., et al., J. Biol. Chem. 271:19888-19893 (1996); Fukayama, S. et al., Endocrinology 134:1851-1858 (1994)). In brief, each well (final volume 500 μl) contained binding buffer (BB; 50 mM Tris-HCl (pH 7.7), 100 mM NaCl, 5 mM KCl, 2 mM CaCl2, 5% heat-inactivated horse serum, and 0.5% heat-inactivated fetal bovine serum), the ^125I-labeled PTH or PTHrP analog (100,000 to 200,000 cpm) was incubated in the absence or presence of increasing concentrations of unlabeled peptides. After 4 h at 16° C., buffer was completely removed, the cells were rinsed with cold BB and lysed with 1 M NaOH. The entire lysate was counted for γ-irradiation. Specific binding was determined after subtracting radioactivity bound in the presence of maximal concentrations of unlabeled competing peptide (10^−6 M). Agonist-dependent stimulation of cAMP accumulation by HKrk-B7 and SaOS-2 cells (48-well plates; stimulation at room temperature for 45 minutes) and the subsequent measurement of cAMP by radioimmunoassay was performed as previously described (Gardella, T. J., et al., J. Biol. Chem. 271:19888-19893 (1996); Bergwitz, C., et al., Endocrinology 139:723-732 (1998)). Data were analyzed and graphically illustrated using the graph-pad prism software package.
The values for EC50 and Vmax (mean±SE) are derived from at least three independent experiments.

human PTH2 receptor = biological target: T3, human PTH2 receptor (Homo sapiens, UniProt P49190); assay: Ligand-stimulated cAMP accumulation in hPR2-20 LLCPK1 cells; assay type: cell-based
T3 construct: expressed in transfected cells
T3 sequence (P49190 25-550): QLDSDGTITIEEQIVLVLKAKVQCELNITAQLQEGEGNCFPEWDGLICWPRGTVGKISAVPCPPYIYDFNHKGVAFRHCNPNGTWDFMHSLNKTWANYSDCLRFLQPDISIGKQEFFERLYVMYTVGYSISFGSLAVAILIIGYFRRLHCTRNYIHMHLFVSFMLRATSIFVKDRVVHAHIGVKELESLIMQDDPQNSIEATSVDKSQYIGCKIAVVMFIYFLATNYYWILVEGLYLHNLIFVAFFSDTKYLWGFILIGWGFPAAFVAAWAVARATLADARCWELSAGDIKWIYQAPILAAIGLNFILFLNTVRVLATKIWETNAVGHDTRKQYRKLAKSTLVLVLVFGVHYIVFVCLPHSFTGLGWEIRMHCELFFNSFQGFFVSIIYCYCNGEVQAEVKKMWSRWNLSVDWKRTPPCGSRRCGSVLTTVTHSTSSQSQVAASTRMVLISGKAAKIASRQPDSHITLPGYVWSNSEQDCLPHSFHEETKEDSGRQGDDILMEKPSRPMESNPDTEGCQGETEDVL

PTH1R [5] = biological target: T1, PTH1R; conditions: cited from earlier work; remark: listed apart in the source
PTH1R [6] = biological target: T1, PTH1R; conditions: cited from earlier work; remark: listed apart in the source
[7] = biological target: T4, human PTH/PTHrP receptor (PTH1R) (human, UniProt Q03431 27-593); assay: cell-based or functional assay
T4 sequence (looked up): T1 sequence (Q03431 27-593)

[8] = biological target: T4, human PTH/PTHrP receptor (PTH1R); assay: radioreceptor competition on HKrk-B7 cells; tracer 125I-[Tyr36]PTHrP(1-36)amide
Procedure: (§4) Na¹²⁵I (specific activity: 2,000 Ci/mmol) was purchased from DuPont/NEN, Boston, Mass. Fetal bovine serum, 3-isobutyl-1-methyl-xanthine (IBMX), and BSA were from Sigma, St. Louis, Mo., and trifluoroacetic acid (TFA) was from Pierce, Rockford, Ill. […] After 4 h at 16° C., buffer was completely removed, the cells were rinsed with cold BB and lysed with 1 M NaOH. The entire lysate was counted for γ-irradiation. Specific binding was determined after subtracting radioactivity bound in the presence of maximal concentrations of unlabeled competing peptide (10⁻⁶ M). Agonist-dependent stimulation of cAMP accumulation by HKrk-B7 and SaOS-2 cells (48-well plates; stimulation at room temperature for 45 minutes) and the subsequent measurement of cAMP by radioimmunoassay was performed as previously described (Gardella, T. J., et al., J. Biol. Chem. 271:19888-19893 (1996); Bergwitz, C., et al., Endocrinology 139:723-732 (1998)). Data were analyzed and graphically illustrated using the graph-pad prism software package.

[9] = biological target: T4, human PTH/PTHrP receptor (PTH1R); assay: radioreceptor competition on HKrk-B7 cells; either tracer
Procedure: (§5) Specific binding was determined after subtracting radioactivity bound in the presence of maximal concentrations of unlabeled competing peptide (10⁻⁶ M). Agonist-dependent stimulation of cAMP accumulation by HKrk-B7 and SaOS-2 cells (48-well plates; stimulation at room temperature for 45 minutes) and the subsequent measurement of cAMP by radioimmunoassay was performed as previously described (Gardella, T. J., et al., J. Biol. Chem. 271:19888-19893 (1996); Bergwitz, C., et al., Endocrinology 139:723-732 (1998)). Data were analyzed and graphically illustrated using the graph-pad prism software package.

[10] = biological target: T4, human PTH/PTHrP receptor (PTH1R); assay: radioreceptor competition on HKrk-B7 cells; tracer 125I-rat [Nle8,21,Tyr34]PTH(1-34)amide
Procedure: as §4

[11] = biological target: T4, human PTH/PTHrP receptor (PTH1R); assay: cell-based or functional assay; remark: listed apart in the source
[12] = biological target: T4, human PTH/PTHrP receptor (PTH1R); assay: radioreceptor competition on HKrk-B7 cells
Procedure: as §5

Molecule: PTH(15-34)amide (LNSMERVEWLRKKLQDVHNF; not fully specified (C-terminus); UniProt P01270 46-65, looked up, fragment)
affinity for the PTH1R (in words) (PTH1R [1]): very low (micromolar) affinity

IC50 (PTH1R [2]): ~0.1 µM
Molecule: CC[C@H](C)[C@H](NC(=O)[C@H](CC(C)C)NC(=O)[C@H](Cc1c[nH]cn1)NC(=O)[C@H](Cc1c[nH]cn1)NC(=O)[C@H](CC(C)C)NC(=O)[C@H](Cc1c[nH]c2ccccc12)NC(=O)[C@H](Cc1ccccc1)NC(=O)[C@H](CCCNC(=N)N)NC(=O)[C@H](CCCNC(=N)N)NC(=O)[C@H](CCCNC(=N)N)NC(=O)[C@H](CC(C)C)NC(=O)[C@H](CC(=O)O)NC(=O)[C@H](CCC(N)=O)NC(=O)[C@@H](NC(=O)[C@H](CO)NC(=O)[C@H](CCCCN)NC(=O)[C@@H](Cc1c[nH]c2ccccc12)NC(=O)[C@H](CC(C)C)NC(=O)[C@H](CC(=O)O)NC(=O)[C@H](Cc1c[nH]cn1)NC(=O)[C@H](CC(C)C)NC(=O)[C@@H](N)CC(C)C)[C@@H](C)CC)C(=O)N[C@@H](C)C(=O)N[C@@H](CCC(=O)O)C(=O)N[C@H](C(=O)N[C@@H](Cc1c[nH]cn1)C(=O)N[C@H](C(=O)N[C@@H](C)C(=O)N[C@@H](CCC(=O)O)C(=O)N[C@@H](Cc1ccc(O)cc1)C(N)=O)[C@@H](C)O)[C@@H](C)CC [PTHrP(7-36), [Leu^11, D-Trp^12, Trp^23, Tyr^36]PTHrP(7-36)amide]

Molecule: CSCC[C@H](NC(=O)[C@H](Cc1ccc(O)cc1)NC(=O)[C@H](CO)NC(=O)[C@H](CC(N)=O)NC(=O)[C@H](CC(C)C)NC(=O)[C@H](Cc1c[nH]c2ccccc12)NC(=O)[C@H](Cc1c[nH]cn1)NC(=O)[C@H](CCCNC(=N)N)NC(=O)[C@H](CCCNC(=N)N)NC(=O)[C@H](CCC(=O)O)NC(=O)[C@H](CC(C)C)NC(=O)[C@H](C)NC(=O)[C@H](C)NC(=O)[C@H](CC(C)C)NC(=O)[C@H](CC(C)C)NC(=O)[C@H](CCCNC(=N)N)NC(=O)[C@H](C)NC(=O)[C@H](CCCNC(=N)N)NC(=O)[C@H](CCC(=O)O)NC(=O)[C@H](CCCNC(=N)N)NC(=O)[C@H](Cc1ccccc1)NC(=O)[C@H](C)NC(=O)[C@H](C)NC(=O)[C@H](CC(=O)O)NC(=O)[C@H](CC(=O)O)NC(=O)[C@H](C)NC(=O)[C@H](CC(C)C)NC(=O)[C@H](C)NC(=O)[C@H](CC(C)C)NC(=O)[C@@H](N)CO)C(=O)N[C@@H](Cc1c[nH]cn1)C(=O)N[C@@H](CCCCN)C(=O)N[C@@H](CC(C)C)C(=O)N[C@@H](CC(C)C)C(=O)N[C@H](C(=O)N[C@@H](CC(C)C)C(=O)N[C@@H](CC(=O)O)C(=O)N[C@@H](C)C(=O)N1CCC[C@H]1C(N)=O)C(C)C [TIP(1-39), reference compound]
stimulation of cAMP accumulation (in words) (endogenous PTH1R): failed to stimulate cAMP accumulation | inhibition of agonist actions (in words) (PTH1R [3]): inhibited the actions of the three agonists | stimulation of cAMP accumulation at the PTH1R (in words) (PTH1R [4]): failed to stimulate cAMP accumulation | maximum cAMP accumulation (human PTH2 receptor): 136.5±4.9 pmol/well

Molecule: TIP(7-39): truncated TIP39 of Hoare et al., excluded from the claims (DAAFRERARLLAALERRHWLNSYMHKLLVLDAP; Tuberoinfundibular peptide of 39 residues; UniProt P0C171 68-100, looked up, fragment)
inhibition of radioligand binding to the PTH1R (in words) (PTH1R [5]): efficiently inhibited radioligand binding | agonist activity at the PTH1R (in words) (PTH1R [6]): no agonist activity

IC50 of inhibition of agonist-stimulated cAMP accumulation, HKrk-B7 cells [7]: 0.1 µM
Molecule: [Leu^11, D-Trp^12, Trp^23, Tyr^36]PTHrP(7-36)amide (from UniProt P12272 43-72) (peptide)

IC50 [8]: 0.044 µM | fold improvement in apparent binding affinity relative to TIP(1-39) [9]: ≤ 6 fold | IC50 [10]: 0.039 µM | IC50 of inhibition of agonist-stimulated cAMP accumulation, HKrk-B7 cells (agonists PTH(1-34), PTHrP(1-36) or PTHrP(1-20)/TIP(23-39), 1 nM) [11]: 0.3 µM | fold higher apparent binding affinity in comparison to the parent peptide TIP(1-39) [12]: ~5.5 fold
Molecule: AFRERARLLAALERRHWLNSYMHKLLVLDAP (not fully specified (C-terminus), also called human TIP-(9-39)) [TIP(9-39)]
